± gives the standard deviation of the averaged measurements.
Columns and labels:
Saccharomyces cerevisiae [1] = assay: protein stability index of tFT-peptide fusion (C-terminal peptide) (PSI (0-1 scale)); higher = more stable (slower turnover)
Procedure: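 MPS profiling in S. cerevisiae of the tFT-X12 degron library: putative degron peptides plus stable controls, 12 aa, fused to the C-terminus of a sfGFP-mCherry timer. Cells are FACS-sorted into 8 mCherry/sfGFP bins and deep-sequenced. PSI runs from 0 (unstable) to 1 (stable). Backgrounds are wild type, das1Δ and doa10Δ at 30 °C, and wild type, das1Δ, cdc34-1 and cdc53-1 at 37 °C; 2-3 technical replicates each.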

Saccharomyces cerevisiae [2] = assay: as above; conditions: genetic background: wild type; temperature: 30 C
[3] = genetic background: cdc34-1, temperature: 37 C
[4] = genetic background: cdc53-1, temperature: 37 C
[5] = genetic background: das1 deletion, temperature: 30 C
[6] = genetic background: das1 deletion, temperature: 37 C
[7] = genetic background: doa10 deletion, temperature: 30 C
[8] = genetic background: wild type, temperature: 30 C
[9] = genetic background: wild type, temperature: 37 C
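Further: PSI is a weighted mean of sequencing reads over stability bins, variants kept only with over 10 reads, mCherry proximal and sfGFP distal, peptide attached via GGGS linker.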

Sequence | protein stability index (Saccharomyces cerevisiae [1]; [3]) | protein stability index (Saccharomyces cerevisiae [1]; [4]) | protein stability index (Saccharomyces cerevisiae [1]; [5]) | protein stability index (Saccharomyces cerevisiae [1]; [6]) | protein stability index (Saccharomyces cerevisiae [1]; [7]) | protein stability index (Saccharomyces cerevisiae [1]; [8]) | protein stability index (Saccharomyces cerevisiae [1]; [9]) | protein stability index (Saccharomyces cerevisiae [2])
RVGALLAVTCPA | 0.435 ± 0.035 | 0.47214 ± 0.00033 | 0.308 ± 0.025 | 0.5127 ± 0.0033 | 0.262 ± 0.0067 | 0.302 ± 0.036 | 0.4766 ± 0.0026 | 0.446 ± 0.0093
FIVVSFCFFLFF | 0.331 ± 0.06 | 0.382 ± 0.0069 | 0.301 ± 0.023 | 0.4351 ± 0.0036 | 0.31 ± 0.03 | 0.263 ± 0.045 | 0.414 ± 0.013 | 0.343 ± 0.067
CFSVFSVLCFFV | 0.575 ± 0.02 | 0.6301 ± 0.0018 | 0.532 ± 0.03 | 0.627 ± 0.015 | 0.415 ± 0.035 | 0.414 ± 0.019 | 0.513 ± 0.0066 | 0.437 ± 0.029
GGYVTVTSVTVV | 0.587 ± 0.051 | 0.62 ± 0.02 | 0.501 ± 0.025 | 0.605 ± 0.019 | 0.499 ± 0.035 | 0.506 ± 0.011 | 0.611 ± 0.015 | 0.468 ± 0.039
VVRSIVVYTCVF | 0.3284 ± 0.0017 | 0.365 ± 0.041 | 0.262 ± 0.026 | 0.4241 ± 0.0025 | 0.219 ± 0.0039 | 0.253 ± 0.02 | 0.405 ± 0.0074 | 0.352 ± 0.021
PLLPLPRFPLFA | 0.547 ± 0.018 | 0.558 ± 0.038 | 0.411 ± 0.03 | 0.595 ± 0.021 | 0.332 ± 0.009 | 0.367 ± 0.013 | 0.529 ± 0.019 | 0.41 ± 0.021
RWELASKCRLCV | 0.563 ± 0.0077 | 0.6716 ± 0.0053 | 0.563 ± 0.021 | 0.7123 ± 0.0068 | 0.148 ± 0.011 | 0.16 ± 0.029 | 0.304 ± 0.061 | 0.296 ± 0.04
YPRLVGGCWFRL | 0.318 ± 0.03 | 0.258 ± 0.037 | 0.371 ± 0.016 | 0.547 ± 0.032 | 0.644 ± 0.043 | 0.319 ± 0.041 | 0.603 ± 0.031 | 0.403 ± 0.047
GVFVWVVFVCTM | 0.145 ± 0.015 | 0.315 ± 0.029 | 0.198 ± 0.017 | 0.3718 ± 0.00094 | 0.167 ± 0.0025 | 0.201 ± 0.013 | 0.315 ± 0.028 | 0.268 ± 0.053
GPFVRSALIFIF | 0.535 ± 0.04 | 0.582 ± 0.045 | 0.467 ± 0.021 | 0.603 ± 0.034 | 0.304 ± 0.0055 | 0.343 ± 0.026 | 0.547 ± 0.022 | 0.407 ± 0.018
TYCFRVCAWRAN | 0.603 ± 0.049 | 0.706 ± 0.021 | 0.583 ± 0.0094 | 0.677 ± 0.012 | 0.176 ± 0.0011 | 0.208 ± 0.026 | 0.396 ± 0.017 | 0.341 ± 0.016
WVGVVLLSVVGG | 0.161 ± 0.016 | 0.249 ± 0.008 | 0.2 ± 0.032 | 0.344 ± 0.0057 | 0.164 ± 0.008 | 0.183 ± 0.025 | 0.32339 ± 0.00026 | 0.279 ± 0.032
YSCFFFLFSFFF | 0.498 ± 0.023 | 0.56 ± 0.016 | 0.429 ± 0.027 | 0.5552 ± 0.0024 | 0.423 ± 0.022 | 0.406 ± 0.0031 | 0.50243 ± 1.8e-05 | 0.4853 ± 0.0041
SCCIYVALCRWL | 0.473 ± 0.024 | 0.573 ± 0.0093 | 0.43 ± 0.024 | 0.5601 ± 0.0013 | 0.323 ± 0.0071 | 0.353 ± 0.035 | 0.48 ± 0.0084 | 0.382 ± 0.016
PPPSRRLTLRLA | 0.612 ± 0.035 | 0.6993 ± 0.0065 | 0.681 ± 0.02 | 0.698 ± 0.009 | 0.179 ± 0.017 | 0.21 ± 0.02 | 0.397 ± 0.015 | 0.292 ± 0.041
LVCLVASCVRWL | 0.453 ± 0.022 | 0.533 ± 0.0085 | 0.359 ± 0.037 | 0.5664 ± 0.0041 | 0.237 ± 0.0034 | 0.272 ± 0.027 | 0.4608 ± 0.0029 | 0.357 ± 0.019
QCKHIVRKIKLH | 0.426 ± 0.089 | 0.61 ± 0.11 | 0.617 ± 0.014 | 0.737 ± 0.018 | 0.117 ± 0.016 | 0.0952 ± 0.034 | 0.147 ± 0.014 | 0.186 ± 0.025
SLPIFSGVASVR | 0.677 ± 0.014 | 0.737 ± 0.033 | 0.64 ± 0.028 | 0.778 ± 0.0013 | 0.642 ± 0.043 | 0.649 ± 0.035 | 0.728 ± 0.011 | 0.694 ± 0.022
LLFLWVLFLPFA | 0.4449 ± 0.00067 | 0.469 ± 0.005 | 0.346 ± 0.036 | 0.5234 ± 0.0037 | 0.361 ± 0.012 | 0.342 ± 0.026 | 0.472 ± 0.0041 | 0.363 ± 0.045

— the supplement of paper PMC10724198
